The source of these data is patent publication US20240209100A1 (DIAGONAL THERAPEUTICS, published 2024).

Assay [1] addresses T1, IL-18 receptor (IL-18Rα/IL-18Rβ) overexpressed on HEK-Blue IL-18 cells (Homo sapiens (Human), UniProt Q13478 19-541; O95256 20-599).
T1 sequence 1: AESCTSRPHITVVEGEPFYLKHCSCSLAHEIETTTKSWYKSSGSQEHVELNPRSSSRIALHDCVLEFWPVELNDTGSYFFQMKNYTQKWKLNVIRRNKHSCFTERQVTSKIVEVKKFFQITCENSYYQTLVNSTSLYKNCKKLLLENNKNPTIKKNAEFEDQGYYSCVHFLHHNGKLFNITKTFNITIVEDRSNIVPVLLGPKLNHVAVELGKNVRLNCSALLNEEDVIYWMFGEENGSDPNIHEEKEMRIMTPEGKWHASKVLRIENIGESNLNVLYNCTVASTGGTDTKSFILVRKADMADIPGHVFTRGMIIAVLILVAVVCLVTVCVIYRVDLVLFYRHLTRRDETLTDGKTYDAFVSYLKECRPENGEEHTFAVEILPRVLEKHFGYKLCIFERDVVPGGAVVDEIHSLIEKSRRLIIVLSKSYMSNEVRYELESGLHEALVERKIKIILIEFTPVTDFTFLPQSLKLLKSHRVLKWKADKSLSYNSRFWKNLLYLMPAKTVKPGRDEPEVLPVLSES
T1 sequence 2: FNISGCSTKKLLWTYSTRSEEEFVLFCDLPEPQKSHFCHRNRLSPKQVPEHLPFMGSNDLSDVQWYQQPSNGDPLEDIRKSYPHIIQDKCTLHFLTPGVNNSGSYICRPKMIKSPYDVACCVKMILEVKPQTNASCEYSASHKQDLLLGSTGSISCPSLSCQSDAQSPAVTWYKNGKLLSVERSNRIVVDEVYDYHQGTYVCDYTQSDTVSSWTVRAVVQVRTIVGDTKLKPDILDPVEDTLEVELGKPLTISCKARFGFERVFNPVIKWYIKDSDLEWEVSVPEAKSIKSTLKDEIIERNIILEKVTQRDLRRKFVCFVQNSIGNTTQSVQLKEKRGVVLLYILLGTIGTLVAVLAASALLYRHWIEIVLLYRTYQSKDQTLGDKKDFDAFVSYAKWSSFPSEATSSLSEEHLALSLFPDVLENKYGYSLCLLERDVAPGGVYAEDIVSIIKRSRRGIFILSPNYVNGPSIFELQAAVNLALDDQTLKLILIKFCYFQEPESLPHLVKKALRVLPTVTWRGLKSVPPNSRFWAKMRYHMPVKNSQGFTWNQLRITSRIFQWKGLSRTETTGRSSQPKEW
Description: cell-based or functional assay.

Assay [2] deals with T1, IL-18 receptor (IL-18Rα/IL-18Rβ) …. Kind of assay: cell-based or functional assay. The source holds these as a separate data set.
The target in the next assay is T2, human IL-18Rβ (human, UniProt O95256 20-356, limits assumed).
T2 construct: Monomeric antigen injected in SPR; also called IL-18R beta; IL-18Rb
T2 sequence: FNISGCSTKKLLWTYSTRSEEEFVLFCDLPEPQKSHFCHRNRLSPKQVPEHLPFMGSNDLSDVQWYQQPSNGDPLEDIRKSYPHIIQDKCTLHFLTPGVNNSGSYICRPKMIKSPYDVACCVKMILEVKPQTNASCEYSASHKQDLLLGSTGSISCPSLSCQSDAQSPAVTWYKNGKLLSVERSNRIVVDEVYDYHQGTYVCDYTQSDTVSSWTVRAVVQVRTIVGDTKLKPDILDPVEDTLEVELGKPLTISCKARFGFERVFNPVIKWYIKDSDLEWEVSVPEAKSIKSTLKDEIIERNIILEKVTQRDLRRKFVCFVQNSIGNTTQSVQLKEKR
Kind of assay: SPR (Carterra LSA), antibody captured on anti-human IgG-Fc, monomeric antigen as analyte, 25 C. As to the method: (§1) SPR experiments were performed using Carterra LSA equipped with an HC30M chip (Carterra-Bio). Binding assays were carried out at 25° C. with HBSTE (10 mM HEPES ph7.4, 150 mM NaCl, 3 mM EDTA, 0.05% Tween-20) with 0.5 g/L BSA. A density of anti-human IgG-Fc capture lawn was established on an HC30M chip using amine coupling. […] Coupling of goat anti-human IgG (H+L) multi-species SP ads-UNLB (Southern Biotech, 2087-01) with standard immobilization was done for 15 minutes in 10 mM sodium acetate pH 4.5 and quenched using 1M ethanolamine HCl PH8.5. The anti-human IgG-Fc capture surface was then used to capture a panel of antibodies at 20 μg/mL. Monomeric antigen for human IL-18Rα, human IL-18Rβ, cynomolgus IL-18Rα, or rhesus IL-18Rβ targeted by the antibodies was injected over the captured antibody array at 6 concentrations in 4-fold dilution series starting at 500 nM. Binding data was referenced and blanked from a buffer injected, then globally fit to a 1:1 Langmuir binding model for estimation of ka, kd, and KD using Carterra Kinetics Software.

Another assay addresses T3, human IL-18Rα (human, UniProt Q13478 19-329, limits assumed).
T3 construct: Monomeric antigen injected in SPR; also called huIL18Ra; IL-18R alpha
T3 sequence: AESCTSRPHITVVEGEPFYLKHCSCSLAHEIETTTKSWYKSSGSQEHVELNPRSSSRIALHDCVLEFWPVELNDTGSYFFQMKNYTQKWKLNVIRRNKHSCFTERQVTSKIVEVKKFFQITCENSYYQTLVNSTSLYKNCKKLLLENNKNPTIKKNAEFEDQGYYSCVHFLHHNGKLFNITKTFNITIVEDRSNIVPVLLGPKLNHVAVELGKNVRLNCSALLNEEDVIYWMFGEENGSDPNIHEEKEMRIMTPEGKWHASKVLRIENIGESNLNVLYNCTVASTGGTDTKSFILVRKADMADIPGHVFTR
The assay is described as above. As to the method: as §1

The target of a further assay is T4, cynomolgus IL-18Rα (cynomolgus, UniProt A0A2K5V3J9 19-328).
T4 construct: also called Cyno IL-18Rα; non-human primate IL-18Rα
T4 sequence: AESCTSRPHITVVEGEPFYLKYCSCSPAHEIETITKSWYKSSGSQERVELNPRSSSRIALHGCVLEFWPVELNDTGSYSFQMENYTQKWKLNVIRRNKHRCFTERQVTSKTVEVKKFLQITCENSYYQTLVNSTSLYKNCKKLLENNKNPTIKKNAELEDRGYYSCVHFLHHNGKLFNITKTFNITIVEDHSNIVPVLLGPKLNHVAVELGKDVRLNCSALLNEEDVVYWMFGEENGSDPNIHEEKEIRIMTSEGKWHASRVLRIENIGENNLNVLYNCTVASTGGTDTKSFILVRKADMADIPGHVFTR
The description is as above. As to the method: as §1

B1: DGL012 (bispecific antibody, human IgG1, kappa, L234A L235A)
heavy 1: EVQLVESGGGLVQAGGSLRLSCAASGRTFSDARMGWFRQAPGRERELIAFISWFGSNTNYGSSVKGRFTISRDNTKNTVYLQMNSLKLEDTAVYYCAACRQSICIDSAEYFDDWGQGTQVTVSSDKTHTCPPCPAPEAAGGPSVFLFPPKPKDTLMISRTPEVTCVVVDVSHEDPEVKFNWYVDGVEVHNAKTKPREEQYNSTYRVVSVLTVLHQDWLNGKEYKCKVSNKALPAPIEKTISKAKGQPREPQVCTLPPSRDELTKNQVSLSCAVKGFYPSDIAVEWESNGQPENNYKTTPPVLDSDGSFFLVSKLTVDKSRWQQGNVFSCSVMHEALHNHYTQKSLSLSPG
heavy 2: not shown
light: DIQMTQSPSSLSASVGDRVTITCQASESIDNWLAWYQQKPGQAPKLLIYSASNLASGVPSRFSGSGSGTDFTLTISSLQPEDFATYYCQSTFYGVNPVPNAFGQGTKVVIKRTVAAPSVFIFPPSDEQLKSGTASVVCLLNNFYPREAKVQWKVDNALQSGNSQESVTEQDSKDSTYSLSSTLTLSKADYEKHKVYACEVTHQGLSSPVTKSFNRGEC
As to B1, in assay [1], the “HEK-Blue IL-18: Emax (Abs at 630 nm) at 10^8 (average of two replicates)” value (shortened to “HEK-Blue IL-18: Emax (Abs at 630 nm)”) was 0.28 Abs at 630 nm.

B2: DGL020 (bispecific antibody, human IgG1, kappa, L234A L235A)
heavy 1: B1 heavy 1
heavy 2: not shown
light: DIQMTQSPSSLSASVGDRVTITCQATEDIESFLAWYQQKPGQAPKLLIYRASTLESGVPSRFSGSGSGTDFTLTISSLQPEDFATYYCQSTVYGVNFVANAFGGGTKVVIKRTVAAPSVFIFPPSDEQLKSGTASVVCLLNNFYPREAKVQWKVDNALQSGNSQESVTEQDSKDSTYSLSSTLTLSKADYEKHKVYACEVTHQGLSSPVTKSFNRGEC
As to B2, the “HEK-Blue IL-18: Emax (Abs at 630 nm)” value in assay [1] came to 0.37 Abs at 630 nm.

B3: DGL333 (bispecific antibody)
heavy 1: EVQLLESGGGLVQPGGSLRLSCAASGRTFSKHAMGWFRQAPGKGLEFVSAIDWSGGSTYYADSVKGRFTISRDNSKNTVYLQMNSLRAEDTAVYYCAADSYTDYAQLWLPELESEYDYWGQGTLVTVSSCPPCPAPEAAGAPSVFLFPPKPKDTLYITREPEVTCVVVDVSHEDPEVKFNWYVDGVEVHNAKTKPREEQYNSTYRVVSVLTVLHQDWLNGKEYKCKVSNKALPAPIEKTISKAKGQPREPQVCTLPPSRDELTKNQVSLSCAVKGFYPSDIAVEWESNGQPENNYKTTPPVLDSDGSFFLVSKLTVDKSRWQQGNVFSCSVMHEALHNHYTQKSLSLSPG
heavy 2: QLQLLESGGGLVQPGGSLRLSCAASRSITFSHNVMGWYRQAPGKGRELVSSIGSGGSTNYVDSVKGRFTISRDNSKKTLYLQMNSLRAEDTAVYYCGVVVGVYRGSLGQGTLVTVSSCPPCPAPEAAGAPSVFLFPPKPKDTLYITREPEVTCVVVDVSHEDPEVKFNWYVDGVEVHNAKTKPREEQYNSTYRVVSVLTVLHQDWLNGKEYKCKVSNKALPAPIEKTISKAKGQPREPQVYTLPPCRDELTKNQVSLWCLVKGFYPSDIAVEWESNGQPENNYKTTPPVLDSDGSFFLYSKLTVDKSRWQQGNVFSCSVMHEALHNHYTQKSLSLSPG
As for B3, in assay [2], the “EC50 (read off the curve), HEK Blue IL-18 SEAP reporter” value is approximately 6 nM.

B4: VHH505 (VHH)
VHH: QLQLVESGGGLVQAGGSLRLSCAASRSITFSHNVMGWYRQAPGKQRELVASIGSGGSTNYVDSVKGRATISRDNAKKTVYLQMNSLKPEDTAVYYCGVVVGVYRGSLGQGTQVTVSS
notes: also called VHH505_beta
As a reminder, the Kd is the concentration at which binding is half-saturated. In the assay with human IL-18Rβ, B4 returned a dissociation constant (Kd) of 1.6 nM.

B5: VHH285 (VHH)
VHH: QVQLVESGGGLVQAGGSLRLSCAASGRTFSKHAMGWFRQAPGKEREFVAAIDWSGGSTYYADSVKGRFTISRDNAKNTVYLQMDSLKPEDTAVYYCAADSYTDYAQLWLPELESEYDYWGQGTQVTVSS
notes: also called VHH285_alpha
For the molecule B5, the Kd with human IL-18Rα amounted to 15 nM; in the assay with cynomolgus IL-18Rα, 14 nM.

B6: DGL023 (bispecific antibody, human IgG1, kappa, L234A L235A)
heavy 1: EVQLVESGGGLVQPGGSLRLSCAASGFTRSYYTIAWFRQAPGKEREGISCIRNTDGSTVVSDSVEGRFTISRDNAKNTVFLQMNSLKTEDTAVYYCAARNDRYGGLCSVRHNYEYWGQGTQVTVSSDKTHTCPPCPAPEAAGGPSVFLFPPKPKDTLMISRTPEVTCVVVDVSHEDPEVKFNWYVDGVEVHNAKTKPREEQYNSTYRVVSVLTVLHQDWLNGKEYKCKVSNKALPAPIEKTISKAKGQPREPQVCTLPPSRDELTKNQVSLSCAVKGFYPSDIAVEWESNGQPENNYKTTPPVLDSDGSFFLVSKLTVDKSRWQQGNVFSCSVMHEALHNHYTQKSLSLSPG
heavy 2: not shown
light: B2 light
Consider B6, for which the “HEK-Blue IL-18: Emax (Abs at 630 nm)” value in assay [1] came out at 0.37 Abs at 630 nm.

B7: VHH363 (VHH)
VHH: QVQLVESGGGLVQAGGSLRLSCAASGRTFSSYTMGWFRQAPGKEREFVAAISWSAGRTYYADSVKGRFTISRDNAKNTVYLQMNSLKPEDTAVYFCAAEEAPDWAPIDCSGYGCLSLYDYWGQGTQVTVSS
notes: also called VHH363_alpha
Take B7: the values for the Kd with human IL-18Rα and with cynomolgus IL-18Rα were 34 nM and 95 nM, respectively.
